Laboratory results from US20250099534A1, “UBIQUITIN HIGH AFFINITY CYCLIC PEPTIDES AND METHODS OF USE THEREOF” (TECHNION RESEARCH & DEVELOPMENT FOUNDATION LIMITED, priority 2022, published 2025).
Like-named read-outs stand apart in the source and are kept apart here. Starred links: 1 amine or outer side, 2 acyl side, 3 side chain; linkers in the order of their positions; H or OH if unused. Positions of bridges follow the written chain, without caps; N, C: chain ends. No end group written: not given here. *: point of attachment. mClBz = N-terminal group cyclised as a benzyl thioether to a Cys, O=C(c1cccc(C[*:3])c1)[*:2]; C6F5 = pentafluorophenyl group on the Cys sulfur, Fc1c(F)c(F)c(*)c(F)c1F

B1: cyclic peptide 20, CP1-L1C-C6F5 (peptide)
peptide: mClBz-C(C6F5)LIWIGSSKNPYILCG
modifications: thioether N-15
B2: cyclic peptide 2 (CP1-L1C) (peptide)
peptide: mClBz-CLIWIGSSKNPYILCG
modifications: bridge N-15; not fully specified (C-terminus, bridges)

Columns and labels:
[1] = biological target: Lys63-linked Ub chains (on proteins in cells and in U2OS lysate); experiment: cell-based or functional assay
[2] = biological target: Lys63-linked Ub chains (on proteins in cells and in U2OS lysate); experiment: cell-based or functional assay; remark: listed apart in the source

| Binder | γ-H2AX level, western blot, HeLa cells [1] [fold] | γ-H2AX level, western blot, U2OS cells [1] [fold] | increase in the population of HeLa cells at G2/M phase, flow cytometry, 72 h [2] [%] | increase in the population of HeLa cells at G2/M phase, flow cytometry, 96 h [2] [%] | increase of overall Annexin V positive HeLa cells, 96 h [2] [%] | relative tail moment, comet assay, U2OS cells [2] [fold] | γ-H2AX level, western blot, HeLa cells [2] [fold] | γ-H2AX level, western blot, U2OS cells [2] [fold] |
| --- | --- | --- | --- | --- | --- | --- | --- | --- |
| B1 | 2.4 | 1.8 |  |  |  |  |  |  |
| B2 |  |  | 5.2 | 13 | 14.5 | 8 | 3.5 | 3 |
